7 molecules from patent publication US20060110388A1 (APPLIED MOLECULAR EVOLUTION, published 2006) can be followed below.

Assay [1] has as its target T1, β Amyloid peptide 1-40 (human, UniProt P05067 672-711).
T1 construct: domain: β Amyloid peptide 1-40; Biotinylated peptide 1-40 (Biosource) on avidin Sepharose only captured free antibody in KinExA; also called Aβ 1-40; human Aβ (1-40)
The experiment in a line: KinExA, Fab, equilibration 16 h. On the procedure:
(§1) Typical 1× concentrations were 10 pM of antibody active sites (0.75 ng/mL) and an upper antigen concentration of 100 pM (0.43 ng/mL). […] A KinExA™ instrument (Sapidyne) and standard KD run file were then used to determine the KD of the system. Briefly, the KinExA™ flow cell was charged with the β Amyloid peptide coated beads and washed with PBSA. For the first sample, free antibody in solution was captured by the beads washed with PBSA and detected using 1:250 Goat anti-human Cy5 (Jackson Immunochemicals) in PBSA. The flow cell was then flushed, re-charged with beads and the next sample analyzed. The process was repeated until all 12 samples were analyzed.
(§2) For KinExA™ kₒₙ and koff measurements, antigen and antibody were prepared as described above. Antigen and antibody samples at 2× active concentration were prepared in PBSA with 0.2% BSA. Samples were mixed 1:1 and the timing for the experiment started. Typical 1× concentrations were 1 nM antibody active site concentration ([…]) and 2 nM antigen (8.6 ng/mL). A KinExA™ instrument (Sapidyne) and a kineticsdirect run file were used to follow the reaction. Time for each measurement was determined using the manufacturer's instructions. Free antibody remaining in the reaction was captured using β amyloid coated beads packed into the flow cell washed with PBSA and detected at each time point using 1:250 Goat anti-human Cy5 (Jackson) in PBSA. The flow cell was then flushed and recharged with beads for the next measurement, the process continued until a complete decay curve obtained. The data was analyzed using the KinExA™ Inject software.
On the technique in general: In KinExA the mixture passes briefly over coated beads that capture the unbound partner.

The target of assay [2] is T1, β Amyloid peptide 1-40. The experiment in a line: KinExA, Fab, equilibration 24 h. Here is the method:
(§3) Typical 1× concentrations were 10 pM of antibody active sites (0.75 ng/mL) and an upper antigen concentration of 100 pM (0.43 ng/mL). The samples were then allowed to equilibrate for 24-72 hours at room temperature. A KinExA™ instrument (Sapidyne) and standard KD run file were then used to determine the KD of the system. Briefly, the KinExA™ flow cell was charged with the β Amyloid peptide coated beads and washed with PBSA. For the first sample, free antibody in solution was captured by the beads washed with PBSA and detected using 1:250 Goat anti-human Cy5 (Jackson Immunochemicals) in PBSA. The flow cell was then flushed, re-charged with beads and the next sample analyzed. The process was repeated until all 12 samples were analyzed.
as §2

The target in assay [3] is T1, β Amyloid peptide 1-40. Briefly: KinExA, mAb, equilibration 16 h. Here is the method:
as §1, §2

The target of assay [4] is T1, β Amyloid peptide 1-40. Briefly: KinExA, mAb. Here is the method: as §3
Assay [5] has as its target T1, β Amyloid peptide 1-40. Briefly: BIAcore; against m266. Here is the method: (§4) BIAcore™ is an automated biosensor system that measures molecular interactions (Karlsson, et al. (1991) J. Immunol. Methods 145: 229-240). BIAcore™ analyses described herein were carried out at 25° C. In these experiments, antibody was immobilized at low density on a BIAcore™ CM5 or B1 chip. For the m266 antibody goat anti-mouse Fc (Jackson Immunoresearch) immobilized on CM5 in flow cell 2 was used for measuring binding constants. Goat anti-mouse was used as control antibody in flow cell 1. For the humanized antibodies, protein A or protein A/G was immobilized via amine coupling to flow cells 1 and 2 of a B1 or CM5 sensor chip.
(§5) Antibody was then captured only to flow cell 2 at desired levels (usually a 10-60 second injection of antibody) and allowed to stabilize for 5 minutes. For these experiments, a fresh aliquot of Aβ 1-40 was thawed and then diluted 1:10 in HBS-EP running buffer. The 1:10 dilution was used to make up a 200 nM Aβ solution which was serially diluted (1:2 dilutions) to a lowest concentration of 6.25 nM. Each concentration was injected over the surface for 5 minutes at a flow rate of 50 μl/min (250 μl total). The Aβ and antibody were eluted from both flow cells with a 40s injection of glycine pH 1.5. The signal is allowed to stabilize for 2 minutes before the next cycle. The data from flow cell 1 is subtracted from flow cell 2 to account for any bulk shifts due to buffer differences or non-specific binding to the sensor chip or Protein A. The various concentrations were injected randomly and each concentration was run in duplicate. Two control runs of buffer only were used to control for any dissociation of antibody from the capture surface. The data was analyzed using the Biaevalution™ software. A 1:1 model with mass transfer and a local Rmax was used as the best fit for the data.
Concentrations of human Aβ (1-40) from 200 nM to 1.6 nM in 2-fold serial dilution were used to obtain on-rate constant. The upper half of Table 6 represents determinations made with a first set of antibody preparations, while the lower half represents determinations made with a second set of antibody preparations
(Surface plasmon resonance follows binding to a sensor surface in real time, without labels.)

Assay [6] addresses T1, β Amyloid peptide 1-40. The experiment in a line: KinExA, mAb; against m266. Here is the method:
as §3

Assay [7] concerns the target T1, β Amyloid peptide 1-40. Briefly: BIAcore, mAb captured, Aβ 1-40 injected, first set of preparations. Here is the method:
as §4, §5
Concentrations of human Aβ (1-40) from 200 nM to 1.6 nM in 2-fold serial dilution were used to obtain on-rate constant. […]

Assay [8] addresses T1, β Amyloid peptide 1-40. The experiment in a line: BIAcore, mAb captured, Aβ 1-40 injected, second set of preparations. On the procedure:
as §4
Antibody was then captured only to flow cell 2 at desired levels (usually a 10-60 second injection of antibody) and allowed to stabilize for 5 minutes. For these experiments, a fresh aliquot of Aβ 1-40 was thawed and then diluted 1:10 in HBS-EP running buffer. The 1:10 dilution was used to make up a 200 nM Aβ solution which was serially diluted (1:2 dilutions) to a lowest concentration of 6.25 nM. Each concentration was injected over the surface for 5 minutes at a flow rate of 50 μl/min (250 μl total). The Aβ and antibody were eluted from both flow cells with a 40s injection of glycine pH 1.5. The signal is allowed to stabilize for 2 minutes before the next cycle. […] The data was analyzed using the Biaevalution™ software. […]

T1 sequence (P05067 672-711 limits assumed): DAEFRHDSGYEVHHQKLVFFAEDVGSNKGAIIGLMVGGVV

B1: m266 Fab fragment (Fab, V domains shown)
VH: EVKLVESGGGLVQPGGSLKLSCAVSGFTFSRYSMSWVRQTPEKRLELVAQINSVGNSTYYPDTVKGRFTISRDNAEYTLSLQMSGLRSDDTATYYCASGDYWGQGTTLTVSS
VL: DVVMTQTPLSLPVSLGDQASISCRSSQSLIYSDGNAYLHWFLQKPGQSPKLLIYKVSNRFSGVPDRFSGSGSGTDFTLKISRVETEDLGVYFCSQSTHVPWTFGGGTKLEIK
In general, Kd refers to the free concentration of one partner at which half of the binding sites on the other are occupied at equilibrium, for simple one-to-one binding. Read a low Kd as higher affinity. Usually koff stands for the rate constant with which the complex falls apart. Low values mean a long-lived complex, high ones a short-lived complex. For orientation: kon means a measure of how fast the partners come together. A low value points to slow association. On to B1, for which, in the assay with β Amyloid peptide 1-40 [1], the affinity, expressed as Kd, was 0.138 nM; the koff came out at 4.96e-05 s⁻¹; the kon was found to be 360000 M⁻¹ s⁻¹.

B2: 1A1 Fab (Fab, V domains shown)
VH: EVQLVESGGGLVKPGGSLRLSCAASGYTFSRYSMSWVRQAPGKGLEWVGQINIRGNNTYYPDTVKGRFTISRDDSKNTLYLQMNSLKTEDTAVYYCTTGDFWGQGTLVTVSS
VL: DIVMTQTPLSLSVTPGQPASISCSSSQSLIYSDGNAYLHWYLQKPGQSPQLLIYKVSNRFSGVPDRFSGSGSGTDFTLKISRVEAEDVGVYYCTQSTHSPWTFGGGTKVEIK
notes: Fab clone
B2: in the assay with β Amyloid peptide 1-40 [2], binding was put at a Kd of 0.0019 nM, the off-rate (koff) worked out at 1.6e-06 s⁻¹ and the kon is 830000 M⁻¹ s⁻¹.

B3: 1C5 monoclonal antibody (IgG1) (antibody, V domains shown)
VH: EVQLVESGGGLVKPGGSLRLSCAASGFTFSRYSMSWVRQAPGKGLEWVGQINSVANSTYYPDTVKGRFTISRDDSKNTLYLQMNSLKTEDTAVYYCTTGDFWGQGTLVTVSS
VL: DIVMTQTPLSLSVTPGQPASISCRSSQSLIYSDGNAYLHWYLQKPGQSPQLLIYKVSNRFSGVPDRFSGSGSGTDFTLKISRVEAEDVGVYYCSQSTHSPWTFGGGTKVEIK
For B3, in the assay with β Amyloid peptide 1-40 [3], binding was characterised by a dissociation constant (Kd) of 0.973 nM, the off-rate constant (koff) was 0.000371 s⁻¹ and the on-rate (kon) was determined as 420000 M⁻¹ s⁻¹.

B4: 1D4 monoclonal antibody (IgG1) (antibody, V domains shown)
VH: EVQLVESGGGLVKPGGSLRLSCAASGFTFSRYSMSWVRQAPGKGLEWVGQINSQGNSTYYPDTVKGRFTISRDDSKNTLYLQMNSLKTEDTAVYYCTTGDRWGQGTLVTVSS
VL: DIVMTQTPLSLSVTPGQPASISCRSSQSLIYSDGNAYLHWYLQKPGQSPQLLIYKVSNRFSGVPDRFSGSGSGTDFTLKISRVEAEDVGVYYCSQSTHSPWTFGGGTKVEIK
Take B4: the Kd amounted to 15.1 nM with β Amyloid peptide 1-40 [4] and 6.31 nM in the assay with β Amyloid peptide 1-40 [3]. For the same molecule, the “Fold Increase (kon)” value with β Amyloid peptide 1-40 [5] was 4 fold. In addition, the “Fold increase in affinity” value with β Amyloid peptide 1-40 [6] worked out at 0.005 fold. In the assay with β Amyloid peptide 1-40 [3], this molecule displayed an off-rate constant (koff) of 0.00074 s⁻¹. Also, the kon with β Amyloid peptide 1-40 [3] was 120000 M⁻¹ s⁻¹; with β Amyloid peptide 1-40 [7], 470000 M⁻¹ s⁻¹.

B5: 1A12 monoclonal antibody (IgG1) (antibody, V domains shown)
VH: EVQLVESGGGLVKPGGSLRLSCAASGFTFSRYSMSWVRQAPGKGLEWVGQINIRGNNTYYPDTVKGRFTISRDDSKNTLYLQMNSLKTEDTAVYYCTTGDFWGQGTLVTVSS
VL: DIVMTQTPLSLSVTPGQPASISCRSSQSLIYSDGNAYLHWYLQKPGQSPQLLIYKVSNRFSGVPDRFSGSGSGTDFTLKISRVEAEDVGVYYCSQSTHSPWTFGGGTKVEIK
As to B5, the “Fold Increase (kon)” value in the assay with β Amyloid peptide 1-40 [5] is 3 fold. In addition, the association rate constant (kon) in the assay with β Amyloid peptide 1-40 [8] came to 410000 M⁻¹ s⁻¹.

B6: 6C3 monoclonal antibody (IgG1) (antibody, V domains shown)
VH: EVQLVESGGGLVKPGGSLRLSCAASGFTFSRYSMSWVRQAPGKGLEWVGQINSRGNSTYYPDTVKGRFTISRDDSKNTLYLQMNSLKTEDTAVYYCTTGDFWGQGTLVTVSS
VL: DIVMTQTPLSLSVTPGQPASISCRSSQSLIYSDGNAYLHWYLQKPGQSPQLLIYKVSNRFSGVPDRFSGSGSGTDFTLKISRVEAEDVGVYYCTQSTHSPWTFGGGTKVEIK
B6: in the assay with β Amyloid peptide 1-40 [5], the “Fold Increase (kon)” value is 5 fold. Besides, in the assay with β Amyloid peptide 1-40 [3], the Kd was determined as 0.0079 nM, the dissociation rate constant (koff) turned out to be 1.01e-05 s⁻¹ and the on-rate (kon) amounted to 1.28e+06 M⁻¹ s⁻¹. The kon in the assay with β Amyloid peptide 1-40 [8] was 610000 M⁻¹ s⁻¹.

B7: 1A12 Fab (Fab, V domains shown)
VH: EVQLVESGGGLVKPGGSLRLSCAASGFTFSRYSMSWVRQAPGKGLEWVGQINIRGNNTYYPDTVKGRFTISRDDSKNTLYLQMNSLKTEDTAVYYCTTGDFWGQGTLVTVSS
VL: DIVMTQTPLSLSVTPGQPASISCRSSQSLIYSDGNAYLHWYLQKPGQSPQLLIYKVSNRFSGVPDRFSGSGSGTDFTLKISRVEAEDVGVYYCSQSTHSPWTFGGGTKVEIK
notes: Fab clone
In the assay with β Amyloid peptide 1-40 [1], B7 had a Kd of 0.0108 nM, an off-rate constant (koff) of 1.72e-05 s⁻¹ and a kon of 1.59e+06 M⁻¹ s⁻¹.
